The target in assay [1] is T1, human Trop-2 on the surface of cells (CHO/Trop-2 cells; BxPC-3 cells; NCI-N87 cells) (human, UniProt P09758 27-323).
T1 sequence (looked up): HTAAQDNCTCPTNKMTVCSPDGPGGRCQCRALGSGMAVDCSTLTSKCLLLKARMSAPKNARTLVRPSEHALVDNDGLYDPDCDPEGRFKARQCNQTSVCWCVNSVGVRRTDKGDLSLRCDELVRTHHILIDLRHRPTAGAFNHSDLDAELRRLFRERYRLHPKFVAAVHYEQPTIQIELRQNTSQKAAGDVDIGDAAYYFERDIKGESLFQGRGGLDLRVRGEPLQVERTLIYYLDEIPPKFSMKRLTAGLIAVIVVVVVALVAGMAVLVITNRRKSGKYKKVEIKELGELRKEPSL
The experiment in a line: cell-based or functional assay.

In assay [2] the target is T2, recombinant human Trop-2-his protein (ACCESSION NO.: NP_002344.2, AA 1-274) (human, UniProt P09758 27-274).
T2 construct: range 27-274; also called recombinant human Trop-2 protein; recombinant human Trop-2 extracellular domain; not shown: his tag
T2 sequence (looked up): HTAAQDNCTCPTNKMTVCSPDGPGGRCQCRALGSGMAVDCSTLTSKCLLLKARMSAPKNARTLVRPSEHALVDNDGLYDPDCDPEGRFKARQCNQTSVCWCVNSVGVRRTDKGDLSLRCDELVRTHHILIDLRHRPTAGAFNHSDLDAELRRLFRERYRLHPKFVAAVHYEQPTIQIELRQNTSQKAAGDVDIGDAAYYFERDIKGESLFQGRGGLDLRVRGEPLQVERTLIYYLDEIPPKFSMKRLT
Nature of the assay: BLI, SN38-labeled antibody on AHC sensor, Trop-2-his 60 nM, 300 s binding. Here is the method: (§1) Affinities of the antibodies were determined by an assay including capturing Fc fragments of the antibodies with anti-human IgG Fc capture (AHC) biosensors using Octet QKe system instrument from Fortebio.
(§2) For the assay, SN38-labeled antibodies prepared as described above: h23-12-SN38, ch4-3-SN38, ch11-4-SN38, and positive control antibody Sacituzumab-SN38, as well as naked antibodies h23-12, ch4-3, ch11-4, and positive control antibody Sacituzumab were diluted to 4 μg/ml with PBS and allowed to flow through the surface of an AHC biosensor (Cat.: 18-0015, PALL) for 120 s. Recombinant human Trop-2-his protein (ACCESSION NO.: NP_002344.2, AA 1-274) was used as a mobile phase, and its concentration was 60 nM. The binding time was 300 s and the dissociation time was 300 s. When the assay was finished, data from which the response value of blank control had been deducted were fitted to a 1:1 Langmuir binding model using software, and then kinetic constants for antigen-antibody binding were calculated.

Assay [3] addresses T1, human Trop-2 on the surface of cells …. Nature of the assay: cell-based or functional assay. The source holds these as a separate data set.
Assay [4] shares this target. The experiment in a line: cell-based or functional assay. This is another data set of the same source.
Assay [5] has the same target. The experiment in a line: cell-based or functional assay. The source holds these as a separate data set.
Assay [6] has as its target T2, recombinant human Trop-2-his protein …. The experiment in a line: BLI, antibody on AHC sensor, Trop-2-his 60 nM. The method, then: (§3) 5-6 days after cell transfection, culture supernatants were purified through ProA affinity chromatography column to obtain different humanized antibodies. Affinities of the obtained antibodies were determined by an assay including capturing Fc fragments of the antibodies with anti-human IgG Fc capture (AHC) biosensors using Octet QKe system instrument from Fortebio. For the assay, each of the humanized antibodies and control antibody Sacituzumab was diluted to 4 μg/ml in PBS, and was allowed to flow through the surface of an AHC biosensor (Cat.: 18-0015, PALL) for 120 s. Recombinant human Trop-2-his protein (ACCESSION NO.: NP_002344.2, AA 1-274) was used as a mobile phase, and its concentration was 60 nM. The binding time was 100 s and the dissociation time was 300 s. When the assay was finished, data from which the response values of blank control had been deducted were fitted to a 1:1 Langmuir binding model using software, and then kinetic constants for antigen-antibody binding were calculated.
Affinities of the antibodies obtained from the combinations of mutants of murine antibody 11-4, chimeric antibody ch11-4 and control antibody Sacituzumab to recombinant human Trop-2-his protein were determined by ForteBio (Table 11).
For orientation: BLI is a label-free optical method that tracks binding on a fibre tip over time.

Assay [7] concerns the target T1, human Trop-2 on the surface of cells …. Nature of the assay: FACS, CHO/Trop-2 cells. Here is the method:
Suspensions of CHO cells recombinantly expressing human Trop-2 (CHO/Trop-2 cells) were incubated with chimeric antibodies ch3-11, ch4-3, ch17-1, ch11-4, and ch23-12 (dilutions at concentrations of 30 μg/ml and 10 μg/ml, and serial dilutions of 9 concentrations obtained through 3-fold serially diluting a solution with an initial concentration of 5 μg/ml, 11 concentrations in total) for 30 min at 37° C. Controls as follows were set: (1) Positive Control (PC): control antibody Sacituzumab; (2) Negative Control (NC): IgG1 isotype control antibody NC-IgG1. The cells were washed 3 times with PBS, and 1:100 dilution of goat anti-human IgG-FITC (Cat.: F9512, Sigma) was added into the cell which then were incubated for 30 min. Then the cells were washed 3 times with PBS again, and the Mean Fluorescence Intensity (MFI) of the cells was measured by a flow cytometer (model B49007AD, SNAW31211, BECKMAN COULTER) to detect binding ability of the chimeric antibodies to human Trop-2 on the surface of CHO cells.
On the technique in general: Flow cytometry measures light scatter and fluorescence of single cells or particles in a stream.

For assay [8], the target named is T2, recombinant human Trop-2-his protein …. Nature of the assay: ELISA, coated Trop-2-his 0.2 µg/ml. Here is the method: Plates were coated with recombinant human Trop-2-his protein (ACCESSION NO.: NP_002344.2, AA 1-274) at a concentration of 0.2 μg/ml overnight at 4° C. and then blocked with 5% BSA for 60 min in a constant temperature incubator at 37° C. Chimeric antibodies ch3-11, ch4-3, ch17-1, ch11-4, and ch23-12 and control antibody Sacituzumab (serial dilutions of 8 concentrations in total obtained through 3-fold serially diluting a solution with an initial concentration of 2 μg/ml) were added into the plates which were then incubated in a constant temperature incubator at 37° C. for 60 min. The plates were washed with PBST 4 times, and 1:5000 dilution of HRP-anti-human Fc (Cat.: 109-035-098, Jackson ImmunoResearch) was added into the plates for reaction for 45 min. TMB (Cat.: ME142, GalaxyBio, Beijing) substrate was added for color development for 15 min, and then 2M HCl was added to stop reaction. Absorbances at 450 nm and at 630 nm (as reference wavelength) were read, and A450 nm-630 nm values of the wells in the plates were recorded.
Background: An ELISA detects its analyte on a solid surface through an enzyme-linked reagent.

For assay [9] the target is unchanged. The experiment in a line: BLI, naked antibody on AHC sensor, Trop-2-his 60 nM, 300 s binding. Here is the method:
as §1, §2

Assay [10] has the same target. The experiment in a line: BLI, antibody on AHC sensor, Trop-2-his 60 nM. The method, then: as §3
Affinities of the antibodies obtained from the combinations of mutants of murine antibody 23-12, chimeric antibody ch4-3 and control antibody Sacituzumab to recombinant human Trop-2-his protein were determined by ForteBio (Table 8).
The source holds these as a separate data set.

The values below come from patent publication US20240092930A1 (MABWELL SHANGHAI BIOSCIENCE, published 2024).

For orientation: Kd means a measure of binding affinity in units of concentration. For orientation: EC50 means the midpoint of the concentration-response curve.

B1: Sacituzumab-SN38 (antibody, human IgG1, kappa, V domains shown)
VH: QVQLQQSGSELKKPGASVKVSCKASGYTFTNYGMNWVKQAPGQGLKWMGWINTYTGEPTYTDDFKGRFAFSLDTSVSTAYLQISSLKADDTAVYFCARGGFGSSYWYFDVWGQGSLVTVSS
VL: DIQLTQSPSSLSASVGDRVSITCKASQDVSIAVAWYQQKPGKAPKLLIYSASYRYTGVPDRFSGSGSGTDFTLTISSLQPEDFAVYYCQQHYITPLTFGAGTKVEIKR
modifications: CL2A-SN-38 conjugated to the DTT-reduced antibody; 7.5 SN38 per antibody; sites not stated
notes: also called Sacituzumab labeled with SN38
Consider B1, for which the “Internalization percentage, 1 h, NCI-N87 cells, FACS” value in [1] was 47.5%. Further, the Kd in [2] came to 0.431 nM. For the same molecule, the “IC50 (µg/ml), inhibitory activity of anti-Trop-2 ADCs on cell growth, BxPC-3 cells” value (“IC50 (µg/ml), inhibitory activity” below) in [3] amounted to 4.31 µg/mL. Besides, the “Internalization percentage, 1 h, BXPC-3 cells, FACS” value in [4] was 32.7%.

B2: chimeric antibody ch11-4 (antibody, human IgG1, V domains shown)
VH: QVQLQQPGAELVRPGASVNLSCKASGYTFTSYWINWVKQRPGQGLEWIGNIYPSNSYTNYNQKFKDTATLTVDKSSSTAYMQLSSPTSEDSAVYFCSSYRSDGFAYWGQGTLVTVSA
VL: DILLTQSPAILSVSPGEKVSFSCRASQNIGTSIHWYQQRTNGSPRLLIEFASESISGIPSRFSGSGSGTDFTLTINSVESEDIADYYCQQSNSWPFTFGGGTKLEIK
For B2, in assay [5], the “Internalization percentage (%), 1 h, BxPC-3 cells, FACS” value was -2%; the “Internalization percentage (%), 3 h, BxPC-3 cells, FACS” value is -7.4%; the “Internalization percentage (%), 5 h, BxPC-3 cells, FACS” value was -9.38%. Besides, the Kd in [6] came to 0.264 nM. The EC50 in assay [7] is 1.15 nM. The EC50 in assay [8] amounted to 0.237 nM. In addition, in [9], the Kd was found to be 0.176 nM. Also, the “Internalization percentage, 1 h, BXPC-3 cells, FACS” value in assay [4] was determined as 15.5%.

B3: ch11-4-SN38 (antibody, V domains shown)
VH: B2 VH
VL: B2 VL
modifications: CL2A-SN-38 conjugated to the DTT-reduced antibody; 7.5 SN38 per antibody; sites not stated
notes: also called ch11-4 labeled with SN38
Take B3: the Kd in assay [2] was found to be 0.0734 nM. Besides, the “IC50 (µg/ml), inhibitory activity” value in [3] was 2.88 µg/mL. For the same molecule, the “Internalization percentage, 1 h, BXPC-3 cells, FACS” value in assay [4] was determined as 51.1%.

B4: chimeric antibody ch4-3 (antibody, human IgG1, V domains shown)
VH: QVQLQQSGPELVKPGASVKMSCKASGFTFTDYVIGWVKQRTGQGLEWIGEIYLGSGTIYYTEKFKGKATLTADTSSNTAYMQLSSLTSEDSAVYFCARGSIFPFDYWGQGTTLTVSS
VL: QIVLTQSPAIMSASPGEKVTMTCSASSSVSYMYWYQQKPGSSPRLLIYDTSTLASGVPVRFSGSGSGTSYSLTISRMEAEDAATYYCQQWSSYPYTFGGGTKLEIK
Turning to B4, in [5], the “Internalization percentage (%), 1 h, BxPC-3 cells, FACS” value is 17.1%. Also, the “Internalization percentage (%), 3 h, BxPC-3 cells, FACS” value in assay [5] was 23.1%. The “Internalization percentage (%), 5 h, BxPC-3 cells, FACS” value in [5] came to 28.1%. For the same molecule, the EC50 amounted to 3.33 nM in assay [7] and 0.32 nM in assay [8]. Also, the “Internalization percentage, 1 h, NCI-N87 cells, FACS” value in assay [1] was 50.2%. Also, the Kd amounted to 0.323 nM in assay [9] and 0.3 nM in assay [10]. Besides, the “Internalization percentage, 1 h, BXPC-3 cells, FACS” value in [4] stood at 30.7%.

B5: ch4-3-SN38 (antibody, V domains shown)
VH: B4 VH
VL: B4 VL
modifications: CL2A-SN-38 conjugated to the DTT-reduced antibody; 7.5 SN38 per antibody; sites not stated
notes: also called ch4-3 labeled with SN38
As for B5, in assay [1], the “Internalization percentage, 1 h, NCI-N87 cells, FACS” value turned out to be 64.6%. The Kd in assay [2] came to 0.177 nM. Further, the “IC50 (µg/ml), inhibitory activity” value in assay [3] amounted to 3.3 µg/mL. Moreover, the “Internalization percentage, 1 h, BXPC-3 cells, FACS” value in [4] turned out to be 57.7%.

B6: h23-12-SN38 (antibody, human IgG1, kappa, V domains shown)
VH: QVQLVQSGAEVKKPGASVKVSCKASGYTFTSYWMHWVRQAPGQGLEWMGEITPSDNYGSYNQKFKGRVTITRDTSTSTAYMELSSLRSEDTAVYYCARGHGNYVSFDYWGQGTLVTVSS
VL: DIQMTQSPSSLSASVGDRVTITCRASQDISNYLNWYQQKPGKAPKLLIYYTSRLESGVPSRFSGSGSGTDFTLTISSLQPEDFATYFCQQGYTLPPYTFGQGTKLEIKR
modifications: CL2A-SN-38 conjugated to the DTT-reduced antibody; 7.5 SN38 per antibody; sites not stated
notes: also called h23-12 labeled with SN38
B6: the “Internalization percentage, 1 h, NCI-N87 cells, FACS” value in assay [1] amounted to 51.1%. Moreover, in assay [2], the Kd stood at 0.441 nM. The “IC50 (µg/ml), inhibitory activity” value in assay [3] is 1.41 µg/mL. In [4], the “Internalization percentage, 1 h, BXPC-3 cells, FACS” value turned out to be 20.1%.
